Results as given in publication PMC12124961.

What was measured:
[1] = target: Bxb1 gp31, tail wing arm (Mycobacteriophage Bxb1); experiment: cryo-EM structure
[2] = target: Bxb1 gp19, tail tube protein (Mycobacteriophage Bxb1); experiment: cryo-EM structure

| stoichiometry N [1] | stoichiometry N [2] | Substance |
| --- | --- | --- |
| 2 |  | Bxb1 gp31, tail wing arm (natural protein) |
|  | 6 | Bxb1 gp19, tail tube protein (natural protein) |
